Literature values, collected in patent US20180140739A1, “HAEMOSTATIC DEVICE” (HAEMOSTATIX LIMITED, priority 2015, published 2018).

Molecular target: T1, fibrinogen hole 'a' and hole 'b' (Homo sapiens, UniProt P02675+P02679)
T1 sequence (P02679 27-433 limits assumed): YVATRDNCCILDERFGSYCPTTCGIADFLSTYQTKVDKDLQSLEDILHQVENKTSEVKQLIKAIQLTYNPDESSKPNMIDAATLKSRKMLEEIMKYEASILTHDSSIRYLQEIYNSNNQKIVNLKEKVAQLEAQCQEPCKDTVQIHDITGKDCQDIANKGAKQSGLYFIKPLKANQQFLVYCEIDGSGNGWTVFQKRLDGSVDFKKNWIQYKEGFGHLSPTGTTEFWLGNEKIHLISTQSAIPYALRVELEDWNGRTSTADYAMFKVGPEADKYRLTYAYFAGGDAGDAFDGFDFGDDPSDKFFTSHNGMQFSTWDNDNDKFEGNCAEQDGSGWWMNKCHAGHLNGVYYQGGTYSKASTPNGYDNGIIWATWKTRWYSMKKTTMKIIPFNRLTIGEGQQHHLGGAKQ
T1 sequence (P02675 31-491): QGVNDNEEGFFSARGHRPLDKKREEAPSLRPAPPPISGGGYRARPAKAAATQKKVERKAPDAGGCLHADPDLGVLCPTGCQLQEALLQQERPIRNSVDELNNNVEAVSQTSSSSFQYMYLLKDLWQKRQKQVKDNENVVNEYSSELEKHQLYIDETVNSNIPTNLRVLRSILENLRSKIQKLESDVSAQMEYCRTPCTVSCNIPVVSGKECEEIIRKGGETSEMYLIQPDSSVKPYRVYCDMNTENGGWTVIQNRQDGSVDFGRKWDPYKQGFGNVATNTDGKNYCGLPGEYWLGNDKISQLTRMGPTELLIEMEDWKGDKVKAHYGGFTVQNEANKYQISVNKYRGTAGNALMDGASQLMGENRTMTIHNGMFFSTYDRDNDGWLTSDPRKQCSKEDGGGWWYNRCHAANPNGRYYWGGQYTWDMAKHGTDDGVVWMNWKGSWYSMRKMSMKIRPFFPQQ
T1 sequence (P02671 20-629 partner limits assumed): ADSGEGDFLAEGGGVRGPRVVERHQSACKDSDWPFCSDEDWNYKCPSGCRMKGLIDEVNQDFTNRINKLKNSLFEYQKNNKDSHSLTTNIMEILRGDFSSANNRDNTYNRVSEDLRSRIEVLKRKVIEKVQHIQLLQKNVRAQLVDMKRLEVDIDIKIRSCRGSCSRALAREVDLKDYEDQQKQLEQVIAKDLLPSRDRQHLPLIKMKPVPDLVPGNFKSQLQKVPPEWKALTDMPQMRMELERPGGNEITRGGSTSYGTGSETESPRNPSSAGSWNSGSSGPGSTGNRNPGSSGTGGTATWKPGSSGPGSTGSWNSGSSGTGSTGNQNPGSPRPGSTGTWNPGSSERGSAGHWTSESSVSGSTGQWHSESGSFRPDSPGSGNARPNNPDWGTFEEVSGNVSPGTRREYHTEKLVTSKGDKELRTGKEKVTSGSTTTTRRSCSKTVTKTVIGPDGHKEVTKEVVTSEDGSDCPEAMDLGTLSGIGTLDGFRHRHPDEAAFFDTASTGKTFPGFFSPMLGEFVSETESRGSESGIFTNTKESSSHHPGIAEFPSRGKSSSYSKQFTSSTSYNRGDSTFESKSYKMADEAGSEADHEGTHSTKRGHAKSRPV
Details: cited from earlier work

Row | Substance | binding preference for hole 'a' / hole 'b' of fibrinogen
1 | GFIRPY | binds strongly and preferentially to the ‘b’ hole of fibrinogen
2 | GPRPFPA (listed as Homo sapiens) | binds with high preference for hole ‘a’ in fibrinogen
3 | GPRP | binds strongly and preferentially to the ‘a’ hole of fibrinogen
